One test addresses Cadherin 11 (human) (UniProt P55287). Description: yeast two-hybrid (PathCalling).
The target in test [1] is Prey 2832217 protein (C11orf15 protein) (human) (UniProt Q9NQ34). Description: yeast two-hybrid (PathCalling).
The target of another test is Lumican (human) (UniProt P51884). Nature of the test: yeast two-hybrid (PathCalling); forty-eight independent experiments.

This is an account of results in patent US20040018199A1.

Chain of UniProt Q9NQ34 (Q9NQ34 35-167 limits assumed, form in doubt): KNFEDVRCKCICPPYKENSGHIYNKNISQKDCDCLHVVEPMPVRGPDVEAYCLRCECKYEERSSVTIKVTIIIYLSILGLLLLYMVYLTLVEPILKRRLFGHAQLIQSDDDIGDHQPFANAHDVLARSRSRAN
Chain of UniProt P51884 (P51884 217-338 limits assumed, form in doubt): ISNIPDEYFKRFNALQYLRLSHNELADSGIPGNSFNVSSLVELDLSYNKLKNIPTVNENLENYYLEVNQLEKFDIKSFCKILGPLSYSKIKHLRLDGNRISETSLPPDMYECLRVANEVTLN
Chain of UniProt P55287 (P55287 154-796 limits assumed, form in doubt): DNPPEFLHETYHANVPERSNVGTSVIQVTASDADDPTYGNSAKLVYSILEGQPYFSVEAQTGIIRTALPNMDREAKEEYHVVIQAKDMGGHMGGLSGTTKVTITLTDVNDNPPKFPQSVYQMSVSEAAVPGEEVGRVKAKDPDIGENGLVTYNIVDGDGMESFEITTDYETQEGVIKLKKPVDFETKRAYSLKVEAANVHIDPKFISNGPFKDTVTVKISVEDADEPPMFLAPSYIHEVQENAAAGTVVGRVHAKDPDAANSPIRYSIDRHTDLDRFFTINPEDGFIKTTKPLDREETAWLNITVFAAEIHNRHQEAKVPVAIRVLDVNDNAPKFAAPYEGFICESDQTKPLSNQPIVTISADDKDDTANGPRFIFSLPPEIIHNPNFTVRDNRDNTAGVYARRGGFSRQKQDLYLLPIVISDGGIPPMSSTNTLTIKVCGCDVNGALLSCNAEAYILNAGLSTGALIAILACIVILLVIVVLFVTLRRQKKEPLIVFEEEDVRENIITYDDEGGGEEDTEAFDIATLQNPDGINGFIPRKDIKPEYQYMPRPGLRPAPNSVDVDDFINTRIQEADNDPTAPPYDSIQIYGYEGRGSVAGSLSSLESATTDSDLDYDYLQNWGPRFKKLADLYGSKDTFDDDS

Take “CG54020 (EPHA8), ephrin type-A receptor 8 (from UniProt P29322 28-207)”: the figures for the interaction rating score (in the test with Cadherin 11 (human); in test [1]; with Lumican (human)) were 2.7, 9.6 and 9.99, respectively.
